Where “and” joins values, the source holds several entries; their conditions need not be identical. Equal values may be shown once.
T1: GST-p300_(TAZ2) (human, UniProt Q09472 1722-1812, tryptophan substituted at A1723)
T1 construct: TAZ2 domain of human p300, aa 1722-1812, with a tryptophan substituted at A1723; pGEX-4T-1 vector with an additional TEV cleavage site; Dimeric in mass photometry (~80 kDa); also called GST-fusion of p300 TAZ2; source: E. coli Rosetta-2 (DE3) pLysS, purified (glutathione agarose, cation exchange or heparin)
T1 sequence (looked up): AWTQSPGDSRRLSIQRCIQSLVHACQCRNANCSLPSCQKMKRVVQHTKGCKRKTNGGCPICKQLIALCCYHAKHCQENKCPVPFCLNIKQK

T2: GST-EZH2_(TAD1) (aa 142-160 of EZH2) (human, UniProt Q15910 142-160)
T2 construct: EZH2, human, aa 142-160, made by deletion from the aa 142-231 construct in pGEX-6P-1; Dimeric in mass photometry (~70 kDa); Limits differ from the synthetic EZH2_(TAD1) peptide (142-154); source: E. coli Rosetta-2 (DE3) pLysS, purified (glutathione agarose, Ni-NTA)
T2 chain (looked up): DGTFIEELIKNYDGKVHGD

B1: EZH2_(TAD1-TAD2-TAD3) (aa 142-231 of EZH2) with C-terminal 6xHis tag (domain or fragment)
chain: not shown
notes: EZH2, human, aa 142-231, holds TAD1, TAD2 and TAD3; pGEX-6P-1 vector; also called triple EZH2_(TAD1-TAD2-TAD3); source: E. coli Rosetta-2 (DE3) pLysS, purified (glutathione agarose, PreScission cleavage, Ni-NTA)
B2: EZH2_(TAD2) peptide (aa 167-185 of EZH2) (peptide, UniProt Q15910 167-185, looked up)
peptide: NDEIFVELVNALGQYNDDD
notes: source: synthetic peptide (SynPeptide Co. Ltd.)
B3: EZH2_(TAD1) peptide (aa 142-154 of EZH2) (peptide, UniProt Q15910 142-154, looked up)
peptide: DGTFIEELIKNYD
notes: as for B2
B4: p300 TAZ2 domain, untagged (p300_(TAZ2)) (domain or fragment, human, UniProt Q09472 1722-1812, looked up)
chain: T1 sequence (looked up)
notes: TAZ2 domain of human p300, aa 1722-1812, with a tryptophan substituted at A1723; Uniformly 15N-labeled for NMR, unlabeled in mass photometry; they are printed there only as p300_(TAZ2); also called 15N-labeled p300_(TAZ2); source: E. coli Rosetta-2 (DE3) pLysS, purified (glutathione agarose, TEV cleavage, cation exchange or heparin)
B5: EZH2_(TAD3) peptide (aa 220-231 of EZH2) (peptide, UniProt Q15910 220-231, looked up)
peptide: SDKIFEAISSMF
notes: as for B2

What was measured:
Settings in all cases: both partners purified
GST-p300_(TAZ2) = biological target: T1, GST-p300_(TAZ2); assay: mass photometry; 20 nM GST-p300_(TAZ2) with EZH2_(TAD1-TAD2) (5 μM) or EZH2_(TAD1-TAD2-TAD3) (1 μM); room temperature; 50 mM Tris pH 7.5, 150 mM NaCl, 5 mM DTT
[1] = biological target: B4; assay: NMR titration; 1H,15N HSQC of 50–100 μM 15N-labeled p300_(TAZ2), unlabeled peptide titrated; 298 K; 50 mM MES pH 6.5, 150 mM NaCl, 5 mM DTT
[2] = biological target: T2, GST-EZH2_(TAD1) (aa 142-160 of EZH2); assay: mass photometry; 20 nM GST-EZH2_(TAD1) with p300_(TAZ2) (0.1 μM); room temperature; 50 mM Tris pH 7.5, 150 mM NaCl, 5 mM DTT

binding result [1] | Binder | other results
– | B1 | stoichiometry N (GST-p300_(TAZ2)): 6 GST-p300_(TAZ2) per EZH2_(TAD1-TAD2-TAD3)
binds | B2 | –
binds | B3 | –
– | B4 | stoichiometry N [2]: 1 p300_(TAZ2) per GST-EZH2_(TAD1) dimer and 2 p300_(TAZ2) per GST-EZH2_(TAD1) dimer
binds | B5 | –

From paper PMC12312386, “Multiple transactivation domains of EZH2 bind to the TAZ2 domain of p300 and stimulate the acetyltransferase function of p300” (Biochemical Journal, 2025)
